Test results as given in publication PMC6716841, “Modification of acetoacetyl-CoA reduction step in Ralstonia eutropha for biosynthesis of poly(3-hydroxybutyrate-co-3-hydroxyhexanoate) from structurally unrelated compounds” (Microbial Cell Factories, 2019).

Substrate: CC(=O)CC(=O)SCCNC(=O)CCNC(=O)[C@H](O)C(C)(C)COP(=O)(O)OP(=O)(O)OC[C@H]1O[C@@H](n2cnc3c(N)ncnc32)[C@H](O)[C@@H]1OP(=O)(O)O
Assay: purified protein
Format: biochemical, Cupriavidus necator
Conditions: 200 μM NADPH, 1 to 20 μM acetoacetyl-CoA, 100 mM Tris-HCl pH 8.0, 30 °C
[1] = substrate inhibition above 12 μM

Protein	Km [1]	Vmax [1]	kcat [1]	kcat/Km [1]	Km	Vmax	kcat	kcat/Km
PhaB1 (Cupriavidus necator H16) (protein) MTQRIAYVTGGMGGIGTAICQRLAKDGFRVVAGCGPNSPRREKWLEQQKALGFDFIASEGNVADWDSTKTAFDKVKSEVGEVDVLINNAGITRDVVFRKMTRADWDAVIDTNLTSLFNVTKQVIDGMADRGWGRIVNISSVNGQKGQFGQTNYSTAKAGLHGFTMALAQEVATKGVTVNTVSPGYIATDMVKAIRQDVLDKIVATIPVKRLGLPEEIASICAWLSSEESGFSTGADFSLNGGLHMG	1.99 ± 0.23 µM	162 µmol/min/mg	71.2 ± 2.7 s⁻¹	3.58e+07 ± 4.4e+06 M⁻¹ s⁻¹	–	–	–	–
PhaB1 (Cupriavidus necator H16; N142V) (protein) MTQRIAYVTGGMGGIGTAICQRLAKDGFRVVAGCGPNSPRREKWLEQQKALGFDFIASEGNVADWDSTKTAFDKVKSEVGEVDVLINNAGITRDVVFRKMTRADWDAVIDTNLTSLFNVTKQVIDGMADRGWGRIVNISSVVGQKGQFGQTNYSTAKAGLHGFTMALAQEVATKGVTVNTVSPGYIATDMVKAIRQDVLDKIVATIPVKRLGLPEEIASICAWLSSEESGFSTGADFSLNGGLHMG	–	–	–	–	58.5 ± 18.1 µM	175 µmol/min/mg	76.7 ± 2.7 s⁻¹	1.31e+06 ± 470000 M⁻¹ s⁻¹
PhaB1 (Cupriavidus necator H16; Y185F) (protein) MTQRIAYVTGGMGGIGTAICQRLAKDGFRVVAGCGPNSPRREKWLEQQKALGFDFIASEGNVADWDSTKTAFDKVKSEVGEVDVLINNAGITRDVVFRKMTRADWDAVIDTNLTSLFNVTKQVIDGMADRGWGRIVNISSVNGQKGQFGQTNYSTAKAGLHGFTMALAQEVATKGVTVNTVSPGFIATDMVKAIRQDVLDKIVATIPVKRLGLPEEIASICAWLSSEESGFSTGADFSLNGGLHMG	–	–	–	–	86.2 ± 20.6 µM	127 µmol/min/mg	55.8 ± 7.6 s⁻¹	650000 ± 180000 M⁻¹ s⁻¹
PhaB1 (Cupriavidus necator H16; N142V/Y185F) (protein) MTQRIAYVTGGMGGIGTAICQRLAKDGFRVVAGCGPNSPRREKWLEQQKALGFDFIASEGNVADWDSTKTAFDKVKSEVGEVDVLINNAGITRDVVFRKMTRADWDAVIDTNLTSLFNVTKQVIDGMADRGWGRIVNISSVVGQKGQFGQTNYSTAKAGLHGFTMALAQEVATKGVTVNTVSPGFIATDMVKAIRQDVLDKIVATIPVKRLGLPEEIASICAWLSSEESGFSTGADFSLNGGLHMG	–	–	–	–	109 ± 38 µM	53.9 µmol/min/mg	23.7 ± 3.7 s⁻¹	220000 ± 80000 M⁻¹ s⁻¹
